The values below come from publication PMC2525512.

The data set deals with T1, murine OX40-human IgG Fc fusion (extracellular portion) (Mus musculus, UniProt P47741 20-211).
T1 sequence: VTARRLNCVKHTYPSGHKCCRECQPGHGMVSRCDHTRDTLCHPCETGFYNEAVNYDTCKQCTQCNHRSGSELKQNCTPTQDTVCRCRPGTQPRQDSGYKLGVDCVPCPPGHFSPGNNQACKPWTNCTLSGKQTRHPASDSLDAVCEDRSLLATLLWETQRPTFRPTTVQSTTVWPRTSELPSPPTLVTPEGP
As to the kind of experiment: filter binding.

B1: aptamer 9.8PM (point mutant) (structured_RNA)
RNA: GGGAGGACGAUGCGGCAGUCUGCAUCGUAGGAUUAGCCACCGUAUACUUUCCCACCAGACGACUCGCUGAGGAUCCGAGA
modifications: 2'-fluoro pyrimidines, 2'-OH purines
For B1, the binding result is on record as “no binding”.
